For the experiment, the target named is T1, mouse glucagon-like peptide 1 receptor (mouse, UniProt O35659 22-463).
T1 sequence (looked up): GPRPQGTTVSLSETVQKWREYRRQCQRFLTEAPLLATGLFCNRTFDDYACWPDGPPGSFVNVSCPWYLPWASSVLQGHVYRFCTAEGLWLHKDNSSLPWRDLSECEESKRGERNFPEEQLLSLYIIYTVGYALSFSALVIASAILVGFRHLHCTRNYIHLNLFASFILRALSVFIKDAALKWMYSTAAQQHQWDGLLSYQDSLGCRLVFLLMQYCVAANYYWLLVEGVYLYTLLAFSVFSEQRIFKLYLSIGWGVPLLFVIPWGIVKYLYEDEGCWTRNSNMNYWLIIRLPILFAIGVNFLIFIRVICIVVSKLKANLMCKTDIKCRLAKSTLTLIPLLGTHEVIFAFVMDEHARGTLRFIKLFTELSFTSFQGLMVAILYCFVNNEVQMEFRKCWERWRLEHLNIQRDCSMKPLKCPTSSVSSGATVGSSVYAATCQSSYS
Description: cell-based or functional assay.

For “Human GLP-1(7-37) (from UniProt P01275 98-128) (ligand)”, the mGLP-1R, CRE Luc EC50 was 3.5 pM.

(Values after US20230346961A1, “GLP-1 AND GIP RECEPTOR CO-AGONISTS” (Novo Nordisk A/S, priority 2020, published 2023).)
